Source: patent US20190330372A1 (Novartis, published 2019)
Numbering of substitutions follows the chain as printed. Numbers in names are those of the source. Where “and” joins values, the source holds several entries; their conditions need not be identical. Identical values can stand only once. Blank lines part the entries; values can stand above or below the binder they belong to.

Experiments:
[1] = target: T1, human plasma derived FXIa (human, UniProt P03951 19-625); experiment: direct ELISA, panel 'Human plasma FXIa': antigen coated on the plate, IgG titrated, AP-anti-human F(ab)2 and AttoPhos fluorescence (RFU); half-maximal binding concentration of the fit, headed 'IC50' in the drawn table; unit taken from the axis 'Conc. [nM]'
T1 construct: The light chain is the catalytic domain, 388-625; also called hFXIa; human FXIa
T1 sequence (P03951 19-625 C226S limits assumed): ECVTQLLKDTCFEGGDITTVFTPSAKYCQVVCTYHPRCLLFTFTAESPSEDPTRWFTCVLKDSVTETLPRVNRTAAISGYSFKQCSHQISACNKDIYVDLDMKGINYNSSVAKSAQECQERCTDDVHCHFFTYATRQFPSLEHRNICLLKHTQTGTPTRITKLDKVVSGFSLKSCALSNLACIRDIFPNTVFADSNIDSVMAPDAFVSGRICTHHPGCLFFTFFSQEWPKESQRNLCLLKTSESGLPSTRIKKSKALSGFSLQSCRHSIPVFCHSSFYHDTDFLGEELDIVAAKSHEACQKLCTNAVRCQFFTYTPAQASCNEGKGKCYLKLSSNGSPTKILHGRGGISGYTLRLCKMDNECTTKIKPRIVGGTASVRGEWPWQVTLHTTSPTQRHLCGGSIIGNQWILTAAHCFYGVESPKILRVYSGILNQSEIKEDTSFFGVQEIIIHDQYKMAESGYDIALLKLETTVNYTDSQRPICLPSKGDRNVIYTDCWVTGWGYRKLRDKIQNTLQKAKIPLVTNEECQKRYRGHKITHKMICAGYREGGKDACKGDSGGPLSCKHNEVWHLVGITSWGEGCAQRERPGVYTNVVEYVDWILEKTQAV
Description: (§1) For direct coating ELISAs, antigens were immobilized on 384-well Maxisorp™ microtiter plates over night at 4° C. using the concentrations as shown in Table 5. After blocking with 5% skim milk powder in PBS (80 μl/well), 20 μl/well of Fab-containing E. coli lysates or purified antibodies at various concentrations (typically 12 points of a 1:3 titration starting at 200 nM IgG or Fab, respectively) were added to plates and incubated for 1 h at room temperature. […] Fluorescence emission at 535 nm was recorded with excitation at 430 nm. Multiple wash steps with PBS+0.05% Tween20 were performed in between individual assay steps.

human kallikrein = human kallikrein (human, UniProt P03952 20-638); experiment: direct ELISA, panel 'Human Kallikrein': antigen coated on the plate, IgG titrated, fluorescence (RFU)
Sequence of human kallikrein (P03952 20-638 limits assumed): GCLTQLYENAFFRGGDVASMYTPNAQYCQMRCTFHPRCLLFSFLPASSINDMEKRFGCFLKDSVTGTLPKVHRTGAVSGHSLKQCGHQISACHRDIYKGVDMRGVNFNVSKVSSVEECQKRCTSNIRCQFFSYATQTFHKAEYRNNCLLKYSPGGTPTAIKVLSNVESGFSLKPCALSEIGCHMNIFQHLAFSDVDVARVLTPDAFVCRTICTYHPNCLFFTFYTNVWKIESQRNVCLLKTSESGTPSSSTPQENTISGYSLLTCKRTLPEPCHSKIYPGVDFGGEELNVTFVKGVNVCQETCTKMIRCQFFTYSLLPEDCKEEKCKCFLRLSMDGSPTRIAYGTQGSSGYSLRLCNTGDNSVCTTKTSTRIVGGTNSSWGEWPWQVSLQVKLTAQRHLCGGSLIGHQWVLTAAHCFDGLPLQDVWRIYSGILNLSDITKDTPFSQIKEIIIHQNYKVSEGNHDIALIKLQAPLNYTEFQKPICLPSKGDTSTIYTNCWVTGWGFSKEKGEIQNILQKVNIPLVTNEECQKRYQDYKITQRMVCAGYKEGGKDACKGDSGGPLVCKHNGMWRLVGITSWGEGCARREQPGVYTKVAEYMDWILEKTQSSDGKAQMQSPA
Description: as §1

human pre-kallikrein = human pre-kallikrein (human, UniProt P03952 20-638); experiment: direct ELISA, panel 'Human Pre-kallikrein': antigen coated on the plate, IgG titrated, fluorescence (RFU)
Sequence of human pre-kallikrein (P03952 20-638 limits assumed): as above
Description: as §1

rabbit FXI = rabbit FXI (rabbit); experiment: direct ELISA, panel 'Rabbit FXI': antigen coated on the plate, IgG titrated, AP-anti-human F(ab)2 and AttoPhos fluorescence (RFU); half-maximal binding concentration of the fit, headed 'IC50' in the drawn table; unit taken from the axis 'Conc. [nM]'
Description: as §1

cynomolgus monkey FXI = cynomolgus monkey FXI (cynomolgus monkey); experiment: direct ELISA, panel 'Cynomolgus monkey FXI': antigen coated on the plate, IgG titrated, AP-anti-human F(ab)2 and AttoPhos fluorescence (RFU); half-maximal binding concentration of the fit, headed 'IC50' in the drawn table; unit taken from the axis 'Conc. [nM]'
Sequence of cynomolgus monkey FXI (cynomolgus monkey) (P03951 other isoform, or with tags, fused parts or gaps): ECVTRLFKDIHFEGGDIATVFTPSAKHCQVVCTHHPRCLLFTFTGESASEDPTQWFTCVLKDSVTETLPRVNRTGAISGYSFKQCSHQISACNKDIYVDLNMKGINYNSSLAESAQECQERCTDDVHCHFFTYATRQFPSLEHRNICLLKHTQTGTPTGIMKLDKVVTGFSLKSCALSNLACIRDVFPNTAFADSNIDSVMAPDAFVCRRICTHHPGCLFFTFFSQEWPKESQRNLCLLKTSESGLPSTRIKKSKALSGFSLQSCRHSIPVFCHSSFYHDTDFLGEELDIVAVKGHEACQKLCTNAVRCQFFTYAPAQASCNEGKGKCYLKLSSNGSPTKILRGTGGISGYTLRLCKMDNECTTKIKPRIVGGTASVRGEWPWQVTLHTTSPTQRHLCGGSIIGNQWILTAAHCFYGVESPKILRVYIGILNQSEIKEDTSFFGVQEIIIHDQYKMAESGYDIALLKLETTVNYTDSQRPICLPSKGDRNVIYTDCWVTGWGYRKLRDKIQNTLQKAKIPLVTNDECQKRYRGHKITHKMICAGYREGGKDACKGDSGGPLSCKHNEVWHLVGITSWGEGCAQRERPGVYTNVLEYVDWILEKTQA
Description: as §1

human plasma-derived FXI = target: T2, human plasma-derived FXI (human, UniProt P03951 19-625); experiment: direct ELISA, panel 'Human plasma FXI': antigen coated on the plate, IgG titrated, AP-anti-human F(ab)2 and AttoPhos fluorescence (RFU); half-maximal binding concentration of the fit, headed 'IC50' in the drawn table; unit taken from the axis 'Conc. [nM]'
T2 construct: This is the zymogen, which has two chains; also called human FXI; Factor XI
T2 sequence (P03951 19-625 C226S limits assumed): as the sequence (P03951 19-625 C226S limits assumed) above
Description: as §1

[2] = target: T1, human plasma derived FXIa; experiment: cell-based or functional assay
[3] = target: T1, human plasma derived FXIa; experiment: cell-based or functional assay; remark: listed apart in the source
[4] = target: T1, human plasma derived FXIa; experiment: solution equilibrium titration (SET), IgG at 20 pM, 1:1 binding model
Description: (§2) Experiments were carried out in polypropylene microtiter plates and with PBS (GIBCO 14190, pH 7.0-7.2) containing 0.5% BSA and 0.02% Tween20 as assay buffer. Serial dilutions of unlabeled FXIa antigen were prepared, starting with a concentration at least 10 times higher than the expected KD. Wells without antigen were used to determine Bₘₐₓ values; wells containing only assay buffer were used to determine background. After addition of an appropriate amount of binder (antibody concentration similar to or below the expected KD, 60 μL final volume), the mixture was incubated over night at RT.
(§3) MSD plates were coated with 1 μg/mL human plasma derived FXIa (30 μL per well). After washing the plate with PBS containing 0.05% Tween 20, the equilibrated samples were transferred to the plates and incubated for 20 min. Following incubation, 30 μL per well of the MSD-Sulfo-tag labeled detection antibody (anti-Flag M2 (Sigma) 1:2,000) was added to the washed MSD plate and incubated for 30 min at RT on an Eppendorf shaker (700 rpm).
The SET method described in Example 2 was used to determine the KD for AM4 (IgG), and compared to NOV1401, the germlined version of its parental antibody NOV1090.

[5] = target: T1, human plasma derived FXIa; experiment: solution equilibrium titration (SET), ECL read-out, purified Fab at 500 pM with titrated hFXIa; ± is the 95% confidence interval of the fit
Description: as §2, §3
After washing the MSD plate and adding 30 μL/well MSD Read Buffer T with surfactant, electrochemiluminescence signals were detected using a Sector Imager 6000 (Meso Scale Discovery, Gaithersburg, Md., USA).

[6] = target: T1, human plasma derived FXIa; experiment: SET screening compared with SET KD of NOV1090 Fab
[7] = target: T1, human plasma derived FXIa; experiment: SET screening, KD estimate from 5 data points, unpurified Fab in bacterial lysate; ± is the 95% confidence interval of the fit
Description: To estimate Fab KDs, bacterial lysates were screened by SET. The SET screening method (see, e.g., Della Ducata et al (2015) J Biomol Screen; 20(10):1256-67) was generally performed as described above for the SET determination method. For ranking of the matured binders by SET based on the principles described by Haenel and coworkers (Haenel et al (2005) Anal Biochem; 339(1):182-4), a constant amount of diluted BEL extract (bacterial lysate) was equilibrated over night with different concentrations of antigen.
The mixture was then transferred to MSD plates, which were previously coated with antigen (1 μg/mL human plasma FXIa), and after incubation and washing, a suitable MSD-Sulfo-tag labeled detection antibody was added (anti-Flag M2, Sigma).

[8] = target: T1, human plasma derived FXIa; experiment: SET KD estimates of Fabs compared with SET KD of NOV1090 Fab
[9] = target: T1, human plasma derived FXIa; experiment: direct ELISA, panel 'Human plasma FXIa': antigen coated on the plate, IgG titrated, AP-anti-human F(ab)2 and AttoPhos fluorescence (RFU); the printed IC50 cell of this row is under recheck
Description: as §1

[10] = target: T1, human plasma derived FXIa; experiment: method not stated in the sentence (compared with the SET KD of NOV1090 Fab); NOV1401 Fab, cited for comparison with the SET KD of NOV1090 Fab

B1: AM1 (IgG) (antibody, V domains shown)
VH: QVQLLESGGGLVQPGGSLRLSCAASGFTFSTAAMSWVRQAPGKGLEWVSTIDSWGDDTDYADSVKGRFTISRDNSKNTLYLQMNSLRAEDTAVYYCARELSYLYSGYYFDYWGQGTLVTVSS
VL: DIVLTQPPSVSGAPGQRVTISCSGSSSNIGSNDVSWYQQLPGTAPKLLIYKNYNRPSGVPDRFSGSKSGTSASLAITGLQAEDEADYYCSAWDQRQFDVVFGGGTKLTVLG
IC50 [1]: 0.274 nM
binding result (human kallikrein): no binding (tested: about 200 nM)
binding result (human pre-kallikrein): no binding (tested: about 200 nM)
IC50 (rabbit FXI): 0.463 nM
IC50 (cynomolgus monkey FXI): 0.448 nM
IC50 (human plasma-derived FXI): 0.215 nM
TGA IC50, fold lower compared to NOV1401 [2]: ~4 fold
TGA IC50 [3]: 6 nM
TGA Residual Thrombin [nM] (%) [3]: 180 nM and 37.5%

B3: NOV1090 Fab (Fab, V domains shown)
VH: B1 VH with T50G, D52S, S53G, W54S, D56S, D57S, D59Y
VL: DIVLTQPPSVSGAPGQRVTISCSGSSSNIGSNDVSWYQQLPGTAPKLLIYKNYNRPSGVPDRFSGSKSGTSASLAITGLQAEDEADYYCSAWDQRQFDVVFGGGTKLTVL
notes: Purified HuCAL Fab, at least 90% monomer; It was detected with anti-Flag M2, so it carries a Flag tag; also called anti-FXI/FXIa Fab; parental NOV1090 Fab fragment
Kd [5]: 0.21 nM

B4: AM2 Fab (Fab, V domains shown)
VH: B1 VH with T50S, D52E, S53Y, W54Y, G55D, D56T, D59H
VL: B3 VL
notes: Unpurified Fab in bacterial lysate (BEL extract), used in SET screening
fold lower KD than NOV1090 Fab [6]: ~7 fold
Kd [7]: 0.027 nM
fold increase in affinity over NOV1090 Fab [8]: ~10 fold

B6: AM2 (IgG) (antibody, V domains shown)
VH: B1 VH with T50S, D52E, S53Y, W54Y, G55D, D56T, D59H
VL: B1 VL
IC50 [1]: 0.466 nM
binding result (human kallikrein): no binding (tested: about 200 nM)
binding result (human pre-kallikrein): no binding (tested: about 200 nM)
IC50 (rabbit FXI): 0.432 nM
IC50 (cynomolgus monkey FXI): 0.399 nM
IC50 (human plasma-derived FXI): 0.331 nM
TGA IC50 [3]: 7 nM
TGA Residual Thrombin [nM] (%) [3]: 186 nM and 36.6%

B7: AM1 Fab (Fab, V domains shown)
VH: B1 VH
VL: B3 VL
notes: as for B4
fold lower KD than NOV1090 Fab [6]: ~7 fold
Kd [7]: 0.032 nM
fold increase in affinity over NOV1090 Fab [8]: ~10 fold

Results, then the binder that gave them:

Kd [4]: 0.00312 nM
TGA IC50 [3]: 24 nM
TGA Residual Thrombin [nM] (%) [3]: 159 nM and 34.4%
B2: NOV1401 (IgG) (antibody, V domains shown)
VH: B1 VH with T50G, D52S, S53G, W54S, D56S, D57S, D59Y
VL: B1 VL with D1Q, I2S, V10A, A13T, T77S, A81S
notes: Germlined version of NOV1090, human IgG1/lambda with D265A and P329A in the Fc

fold lower KD than NOV1090 Fab [6]: ~7 fold
Kd [7]: 0.029 nM
fold increase in affinity over NOV1090 Fab [8]: ~10 fold
B5: AM3 Fab (Fab, V domains shown)
VH: B1 VH with D52E, S53Y, W54S, G55S, D56Q, D57E, D59Y
VL: B3 VL
notes: as for B4

EC50 (read off the curve) [9]: ~0.6 nM
binding result (human kallikrein): no binding (tested: about 200 nM)
binding result (human pre-kallikrein): no binding (tested: about 200 nM)
IC50 (rabbit FXI): 0.504 nM
IC50 (cynomolgus monkey FXI): 0.58 nM
IC50 (human plasma-derived FXI): 0.392 nM
B8: NOV1090 (IgG) (antibody, V domains shown)
VH: B1 VH with T50G, D52S, S53G, W54S, D56S, D57S, D59Y
VL: B1 VL
notes: Non-germlined version of NOV1401, human IgG1/lambda; also called parental NOV1090; parental IgG

Kd [10]: 0.305 nM
B9: NOV1401 Fab (Fab, V domains shown)
VH: B1 VH with T50G, D52S, S53G, W54S, D56S, D57S, D59Y
VL: B3 VL with D1Q, I2S, V10A, A13T, T77S, A81S
notes: Fab of NOV1401, the germlined version of NOV1090 with identical CDRs
